For eleven molecules, Kd and IC50 results are on record in article PMC3638996 (Structure (London, England : 1993), 2013).

T1: Murine Gαq (amino acids 7-359), biotinylated (mouse, UniProt P21279 7-359, biotinylated with biotinamidohexanoic acid N-hydroxysuccinimide)
T1 sequence (looked up): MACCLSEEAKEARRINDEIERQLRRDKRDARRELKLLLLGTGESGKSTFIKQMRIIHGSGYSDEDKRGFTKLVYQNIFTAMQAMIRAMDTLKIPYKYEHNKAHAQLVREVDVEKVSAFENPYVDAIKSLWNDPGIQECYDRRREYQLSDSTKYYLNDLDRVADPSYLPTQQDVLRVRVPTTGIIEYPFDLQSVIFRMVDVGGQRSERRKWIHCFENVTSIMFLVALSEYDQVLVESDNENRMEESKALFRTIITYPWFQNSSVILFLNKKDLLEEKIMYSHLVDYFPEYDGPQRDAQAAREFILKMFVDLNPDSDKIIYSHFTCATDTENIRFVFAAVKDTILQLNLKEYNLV

B1: Full-length RGS2, fluorescently labeled with Alexa Fluor-488 (natural protein, human, UniProt P41220 1-211, looked up)
chain: MQSAMFLAVQHDCRPMDKSAGSGHKSEEKREKMKRTLLKDWKTRLSYFLQNSSTPGKPKTGKKSKQQAFIKPSPEEAQLWSEAFDELLASKYGLAAFRAFLKSEFCEENIEFWLACEDFKKTKSPQKLSSKARKIYTDFIEKEAPKEINIDFQTKTLIAQNIQEATSGCFTTAQKRVYSLMENNSYPRFLESEFYQDLCKKPQITTEPHAT
modifications: labeled with Alexa Fluor-488 carboxylic acid, 2,3,5,6-tetrafluorophenyl ester, 5-isomer
B2: RGS2 RH domain (residues 72-203), wild type (domain or fragment, human)
chain: GEFGSPSPEEAQLWSEAFDELLASKYGLAAFRAFLKSEFCEENIEFWLACEDFKKTKSPQKLSSKARKIYTDFIEKEAPKEINIDFQTKTLIAQNIQEATSGCFTTAQKRVYSLMENNSYPRFLESEFYQDLCKKPQ
B3: RGS2 RH domain (residues 72-203) N183F (domain or fragment, human)
chain: GEFGSPSPEEAQLWSEAFDELLASKYGLAAFRAFLKSEFCEENIEFWLACEDFKKTKSPQKLSSKARKIYTDFIEKEAPKEINIDFQTKTLIAQNIQEATSGCFTTAQKRVYSLMEFNSYPRFLESEFYQDLCKKPQ
B4: RGS2 RH domain (residues 72-203) S179M (domain or fragment, human)
chain: GEFGSPSPEEAQLWSEAFDELLASKYGLAAFRAFLKSEFCEENIEFWLACEDFKKTKSPQKLSSKARKIYTDFIEKEAPKEINIDFQTKTLIAQNIQEATSGCFTTAQKRVYMLMENNSYPRFLESEFYQDLCKKPQ
B5: RGS2 RH domain (residues 72-203) S179N (domain or fragment, human)
chain: GEFGSPSPEEAQLWSEAFDELLASKYGLAAFRAFLKSEFCEENIEFWLACEDFKKTKSPQKLSSKARKIYTDFIEKEAPKEINIDFQTKTLIAQNIQEATSGCFTTAQKRVYNLMENNSYPRFLESEFYQDLCKKPQ
B6: RGS2 RH domain (residues 72-203) S179D (domain or fragment, human)
chain: GEFGSPSPEEAQLWSEAFDELLASKYGLAAFRAFLKSEFCEENIEFWLACEDFKKTKSPQKLSSKARKIYTDFIEKEAPKEINIDFQTKTLIAQNIQEATSGCFTTAQKRVYDLMENNSYPRFLESEFYQDLCKKPQ
B7: RGS2 RH domain (residues 72-203) K175A (domain or fragment, human)
chain: GEFGSPSPEEAQLWSEAFDELLASKYGLAAFRAFLKSEFCEENIEFWLACEDFKKTKSPQKLSSKARKIYTDFIEKEAPKEINIDFQTKTLIAQNIQEATSGCFTTAQARVYSLMENNSYPRFLESEFYQDLCKKPQ
B8: RGS2 RH domain (residues 72-203) E182A (domain or fragment, human)
chain: GEFGSPSPEEAQLWSEAFDELLASKYGLAAFRAFLKSEFCEENIEFWLACEDFKKTKSPQKLSSKARKIYTDFIEKEAPKEINIDFQTKTLIAQNIQEATSGCFTTAQKRVYSLMANNSYPRFLESEFYQDLCKKPQ
B9: RGS2 RH domain (residues 72-203) N183K (domain or fragment, human)
chain: GEFGSPSPEEAQLWSEAFDELLASKYGLAAFRAFLKSEFCEENIEFWLACEDFKKTKSPQKLSSKARKIYTDFIEKEAPKEINIDFQTKTLIAQNIQEATSGCFTTAQKRVYSLMEKNSYPRFLESEFYQDLCKKPQ
B10: RGS2 RH domain (residues 72-203) S179K (domain or fragment, human)
chain: GEFGSPSPEEAQLWSEAFDELLASKYGLAAFRAFLKSEFCEENIEFWLACEDFKKTKSPQKLSSKARKIYTDFIEKEAPKEINIDFQTKTLIAQNIQEATSGCFTTAQKRVYKLMENNSYPRFLESEFYQDLCKKPQ
B11: RGS2 RH domain (residues 72-203) N183A (domain or fragment, human)
chain: GEFGSPSPEEAQLWSEAFDELLASKYGLAAFRAFLKSEFCEENIEFWLACEDFKKTKSPQKLSSKARKIYTDFIEKEAPKEINIDFQTKTLIAQNIQEATSGCFTTAQKRVYSLMEANSYPRFLESEFYQDLCKKPQ

For the first experiment, the target named is Gαi/q-R183C chimera (Gαq R183C with the N-terminal helix of Gαi), biotinylated (not stated | mouse). Nature of the experiment: bead-based flow cytometry binding assay.
In the case of B1, the equilibrium dissociation constant (Kd) (commonly the concentration at which binding is half-saturated) worked out at 22 nM.

In the next experiment the target is T1, Murine Gαq (amino acids 7-359), …. In words: bead-based flow cytometry binding assay. (In general: Flow cytometry measures light scatter and fluorescence of single cells or particles in a stream.)
Take B1: the Kd amounted to 3.3 nM.

A further experiment has the same target. Nature of the experiment: bead-based flow cytometry competition assay.
For B2, the concentration for half-maximal inhibition (IC50) – broadly, the concentration needed to halve the response being measured – turned out to be 270 nM. This counts as sub-micromolar.
B3 yielded an IC50 of 170 nM. This IC50 is about 1.6-fold lower than that of the molecule before.
Still for that read-out and setting: with B4 the figure was 130 nM; with B5, 690 nM; with B6, 16000 nM.
On the same count and under the same terms, with B7 the figure was 560 nM; with B8, 300 nM.
The same measure, in the same setting: with B9 the figure was 7100 nM.
For B10, the IC50 was found to be 3400 nM.
Still for that read-out and setting: with B11 the figure was 1500 nM.
